# According to patent US20190381171A1, “CO-USE OF ANTI-BCMA ANTIBODY AND ANTIBODY-COUPLED T CELL RECEPTOR (ACTR) IN CANCER THERAPY AND B CELL DISORDERS” (UNUM THERAPEUTICS INC., priority 2017, published 2019):
# B1: humanized afucosylated (SEA) anti-BCMA antibody hSG16.17SEA (antibody, V domains shown)
# VH: QVQLVQSGAEVKKPGASVKLSCKASGYTFTDYYIHWVRQAPGQGLEWIGYINPNSGYTNYAQKFQGRATMTADKSINTAYVELSRLRSDDTAVYFCTRYMWERVTGFFDFWGQGTMVTVSS
# VL: DIQMTQSPSSVSASVGDRVTITCLASEDISDDLAWYQQKPGKAPKVLVYTTSSLQSGVPSRFSGSGSGTDFTLTISSLQPEDFATYFCQQTYKFPPTFGGGTKVEIKR
# Experiments:
# Experiment in all cases: cell-based or functional assay
# [1] = target: ACTR variant SEQ ID NO: 62
# [2] = target: ACTR variant SEQ ID NO: 63
# [3] = target: ACTR variant SEQ ID NO: 60
# [4] = target: ACTR variant SEQ ID NO: 61
# [5] = target: ACTR variant SEQ ID NO: 10
# [6] = target: ACTR variant SEQ ID NO: 57
# [7] = target: ACTR variant SEQ ID NO: 59
# [8] = target: ACTR variant SEQ ID NO: 58
# [9] = target: ACTR variant SEQ ID NO: 7
# ACTR variant SEQ ID NO: 7, sequence (chain, as listed by the source mutant limits assumed): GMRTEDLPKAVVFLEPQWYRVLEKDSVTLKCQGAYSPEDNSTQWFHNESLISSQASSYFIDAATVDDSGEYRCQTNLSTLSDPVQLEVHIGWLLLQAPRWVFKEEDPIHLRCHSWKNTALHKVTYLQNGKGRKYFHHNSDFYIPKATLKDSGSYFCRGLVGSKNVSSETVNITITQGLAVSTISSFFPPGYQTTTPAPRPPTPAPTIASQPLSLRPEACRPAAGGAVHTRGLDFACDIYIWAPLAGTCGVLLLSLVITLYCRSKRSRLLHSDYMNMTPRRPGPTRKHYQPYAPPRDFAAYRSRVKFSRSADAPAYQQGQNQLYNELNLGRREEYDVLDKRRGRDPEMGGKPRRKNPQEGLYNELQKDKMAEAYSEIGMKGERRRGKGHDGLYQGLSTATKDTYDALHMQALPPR
# ACTR variant SEQ ID NO: 62, sequence (chain, as listed by the source mutant limits assumed): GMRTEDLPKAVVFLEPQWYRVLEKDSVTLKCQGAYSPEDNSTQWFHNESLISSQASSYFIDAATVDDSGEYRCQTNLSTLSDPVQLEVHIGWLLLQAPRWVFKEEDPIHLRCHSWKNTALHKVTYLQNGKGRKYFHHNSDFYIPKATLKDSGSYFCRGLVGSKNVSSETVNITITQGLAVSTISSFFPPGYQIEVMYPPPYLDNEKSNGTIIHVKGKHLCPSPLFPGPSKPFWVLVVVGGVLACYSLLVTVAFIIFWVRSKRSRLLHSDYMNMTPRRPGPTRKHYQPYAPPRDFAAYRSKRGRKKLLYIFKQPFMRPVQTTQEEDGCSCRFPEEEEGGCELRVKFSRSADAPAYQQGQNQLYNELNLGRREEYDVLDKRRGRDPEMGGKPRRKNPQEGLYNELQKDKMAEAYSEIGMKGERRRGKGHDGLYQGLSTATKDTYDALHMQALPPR
# ACTR variant SEQ ID NO: 63, sequence (chain, as listed by the source mutant limits assumed): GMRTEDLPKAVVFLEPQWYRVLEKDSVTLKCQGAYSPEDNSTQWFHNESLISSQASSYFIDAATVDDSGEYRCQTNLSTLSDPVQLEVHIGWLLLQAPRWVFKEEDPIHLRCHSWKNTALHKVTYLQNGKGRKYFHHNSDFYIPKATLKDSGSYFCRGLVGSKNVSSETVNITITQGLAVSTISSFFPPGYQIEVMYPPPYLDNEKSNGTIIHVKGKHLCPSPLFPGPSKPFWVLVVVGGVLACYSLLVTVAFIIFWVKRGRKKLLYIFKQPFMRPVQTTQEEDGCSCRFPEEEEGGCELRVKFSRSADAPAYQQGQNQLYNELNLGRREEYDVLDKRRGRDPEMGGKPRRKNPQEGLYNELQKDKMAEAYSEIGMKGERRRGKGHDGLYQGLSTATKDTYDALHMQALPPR
# ACTR variant SEQ ID NO: 61, sequence (chain, as listed by the source mutant limits assumed): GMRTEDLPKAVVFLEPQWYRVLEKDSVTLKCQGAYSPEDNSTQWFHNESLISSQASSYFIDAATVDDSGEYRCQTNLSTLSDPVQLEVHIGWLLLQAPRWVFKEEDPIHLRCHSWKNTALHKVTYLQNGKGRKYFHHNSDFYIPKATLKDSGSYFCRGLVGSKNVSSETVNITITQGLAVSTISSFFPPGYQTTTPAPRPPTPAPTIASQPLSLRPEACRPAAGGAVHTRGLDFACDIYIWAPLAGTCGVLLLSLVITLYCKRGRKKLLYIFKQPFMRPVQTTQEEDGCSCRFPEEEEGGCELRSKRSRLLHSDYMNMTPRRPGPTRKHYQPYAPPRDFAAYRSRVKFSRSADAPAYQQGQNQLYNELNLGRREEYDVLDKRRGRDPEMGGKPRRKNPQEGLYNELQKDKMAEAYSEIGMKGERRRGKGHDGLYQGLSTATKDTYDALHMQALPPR
# ACTR variant SEQ ID NO: 57, sequence (chain, as listed by the source mutant): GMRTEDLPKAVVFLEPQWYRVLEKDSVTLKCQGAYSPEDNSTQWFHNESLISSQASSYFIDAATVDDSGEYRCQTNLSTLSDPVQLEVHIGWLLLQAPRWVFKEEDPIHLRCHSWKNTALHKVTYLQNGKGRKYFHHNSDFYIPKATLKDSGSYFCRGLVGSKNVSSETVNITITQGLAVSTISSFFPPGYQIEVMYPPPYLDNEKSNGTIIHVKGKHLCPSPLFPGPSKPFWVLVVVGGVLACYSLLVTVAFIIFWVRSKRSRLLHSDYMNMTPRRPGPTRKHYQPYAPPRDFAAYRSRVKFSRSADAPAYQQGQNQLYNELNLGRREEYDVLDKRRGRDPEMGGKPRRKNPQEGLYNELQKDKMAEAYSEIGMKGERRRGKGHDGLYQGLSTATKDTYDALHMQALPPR
# ACTR variant SEQ ID NO: 10, sequence (chain, as listed by the source mutant limits assumed): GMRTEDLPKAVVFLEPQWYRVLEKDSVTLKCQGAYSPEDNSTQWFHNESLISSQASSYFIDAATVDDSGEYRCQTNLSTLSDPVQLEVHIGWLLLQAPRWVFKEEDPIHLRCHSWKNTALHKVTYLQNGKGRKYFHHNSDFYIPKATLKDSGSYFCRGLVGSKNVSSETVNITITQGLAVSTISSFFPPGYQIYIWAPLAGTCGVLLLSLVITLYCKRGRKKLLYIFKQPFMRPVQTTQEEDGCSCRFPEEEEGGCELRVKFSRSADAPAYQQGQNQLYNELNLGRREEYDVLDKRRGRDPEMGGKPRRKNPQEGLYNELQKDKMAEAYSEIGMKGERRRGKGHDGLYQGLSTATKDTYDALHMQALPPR
# ACTR variant SEQ ID NO: 58, sequence (chain, as listed by the source mutant): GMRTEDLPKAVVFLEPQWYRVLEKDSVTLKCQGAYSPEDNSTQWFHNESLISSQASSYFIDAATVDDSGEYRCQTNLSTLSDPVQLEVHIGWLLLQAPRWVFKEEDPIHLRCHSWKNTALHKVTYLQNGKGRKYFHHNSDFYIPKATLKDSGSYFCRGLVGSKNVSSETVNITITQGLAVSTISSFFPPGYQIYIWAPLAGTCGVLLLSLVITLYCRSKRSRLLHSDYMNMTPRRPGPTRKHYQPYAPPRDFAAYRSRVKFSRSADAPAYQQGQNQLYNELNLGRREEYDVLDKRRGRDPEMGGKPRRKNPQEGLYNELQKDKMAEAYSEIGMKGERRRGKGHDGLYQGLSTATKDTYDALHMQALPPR
# ACTR variant SEQ ID NO: 60, sequence (chain, as listed by the source mutant limits assumed): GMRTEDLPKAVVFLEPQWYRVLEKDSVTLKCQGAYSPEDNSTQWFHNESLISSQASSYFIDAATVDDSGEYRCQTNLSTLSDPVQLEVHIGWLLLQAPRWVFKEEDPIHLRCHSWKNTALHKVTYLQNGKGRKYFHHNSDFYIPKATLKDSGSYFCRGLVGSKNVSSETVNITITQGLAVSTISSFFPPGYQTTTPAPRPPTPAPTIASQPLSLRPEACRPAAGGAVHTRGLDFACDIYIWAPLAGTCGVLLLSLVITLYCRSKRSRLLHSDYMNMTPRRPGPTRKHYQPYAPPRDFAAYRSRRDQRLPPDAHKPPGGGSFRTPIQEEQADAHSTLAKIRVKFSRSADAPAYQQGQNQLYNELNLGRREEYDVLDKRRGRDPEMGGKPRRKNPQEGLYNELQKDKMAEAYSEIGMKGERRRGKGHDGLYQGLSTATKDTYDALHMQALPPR
# ACTR variant SEQ ID NO: 59, sequence (chain, as listed by the source mutant limits assumed): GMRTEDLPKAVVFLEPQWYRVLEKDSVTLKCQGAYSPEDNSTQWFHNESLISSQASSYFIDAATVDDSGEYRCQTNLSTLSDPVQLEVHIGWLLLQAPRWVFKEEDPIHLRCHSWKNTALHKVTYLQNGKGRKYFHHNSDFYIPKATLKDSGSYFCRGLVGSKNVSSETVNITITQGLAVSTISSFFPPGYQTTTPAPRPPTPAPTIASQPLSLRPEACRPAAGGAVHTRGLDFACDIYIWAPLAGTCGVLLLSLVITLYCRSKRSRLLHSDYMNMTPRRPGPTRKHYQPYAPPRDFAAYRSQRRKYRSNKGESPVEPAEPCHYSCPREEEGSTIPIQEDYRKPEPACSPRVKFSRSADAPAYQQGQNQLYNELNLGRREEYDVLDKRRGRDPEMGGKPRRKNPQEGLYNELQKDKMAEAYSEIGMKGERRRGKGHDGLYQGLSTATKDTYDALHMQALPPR
binder,measurement,setting,value
B1,"IFNγ Release (pg/mL), ACTR T cells + NCI-H929 Target Cells + hSG16.17SEA (1 µg/mL)",[1],14500 pg/mL
same,"IFNγ Release (pg/mL), ACTR T cells + U266B1 Target Cells + hSG16.17SEA (1 µg/mL)",[1],7580 pg/mL
same,"IL-2 Release (pg/mL), ACTR T cells + NCI-H929 Target Cells + hSG16.17SEA (1 µg/mL)",[1],119 pg/mL
same,"IL-2 Release (pg/mL), ACTR T cells + U266B1 Target Cells + hSG16.17SEA (1 µg/mL)",[1],12.3 pg/mL
same,"T-cell proliferation: fold increase in CD3+ cells at 1 µg/mL hSG16.17SEA relative to no antibody, NCI-H929 Target Cells",[1],6.24 fold
same,"T-cell proliferation: fold increase in CD3+ cells at 1 µg/mL hSG16.17SEA relative to no antibody, U266B1 Target Cells",[1],2.87 fold
same,"IFNγ Release (pg/mL), ACTR T cells + NCI-H929 Target Cells + hSG16.17SEA (1 µg/mL)",[2],16000 pg/mL
same,"IFNγ Release (pg/mL), ACTR T cells + U266B1 Target Cells + hSG16.17SEA (1 µg/mL)",[2],10400 pg/mL
same,"IL-2 Release (pg/mL), ACTR T cells + NCI-H929 Target Cells + hSG16.17SEA (1 µg/mL)",[2],66.5 pg/mL
same,"IL-2 Release (pg/mL), ACTR T cells + U266B1 Target Cells + hSG16.17SEA (1 µg/mL)",[2],1.6 pg/mL
same,"T-cell proliferation: fold increase in CD3+ cells at 1 µg/mL hSG16.17SEA relative to no antibody, NCI-H929 Target Cells",[2],3.76 fold
same,"T-cell proliferation: fold increase in CD3+ cells at 1 µg/mL hSG16.17SEA relative to no antibody, U266B1 Target Cells",[2],2.82 fold
same,"IFNγ Release (pg/mL), ACTR T cells + NCI-H929 Target Cells + hSG16.17SEA (1 µg/mL)",[3],18600 pg/mL
same,"IFNγ Release (pg/mL), ACTR T cells + U266B1 Target Cells + hSG16.17SEA (1 µg/mL)",[3],14400 pg/mL
same,"IL-2 Release (pg/mL), ACTR T cells + NCI-H929 Target Cells + hSG16.17SEA (1 µg/mL)",[3],258 pg/mL
same,"IL-2 Release (pg/mL), ACTR T cells + U266B1 Target Cells + hSG16.17SEA (1 µg/mL)",[3],48.6 pg/mL
same,"T-cell proliferation: fold increase in CD3+ cells at 1 µg/mL hSG16.17SEA relative to no antibody, NCI-H929 Target Cells",[3],18.3 fold
same,"T-cell proliferation: fold increase in CD3+ cells at 1 µg/mL hSG16.17SEA relative to no antibody, U266B1 Target Cells",[3],11.7 fold
same,"IFNγ Release (pg/mL), ACTR T cells + NCI-H929 Target Cells + hSG16.17SEA (1 µg/mL)",[4],22900 pg/mL
same,"IFNγ Release (pg/mL), ACTR T cells + U266B1 Target Cells + hSG16.17SEA (1 µg/mL)",[4],11600 pg/mL
same,"IL-2 Release (pg/mL), ACTR T cells + NCI-H929 Target Cells + hSG16.17SEA (1 µg/mL)",[4],178 pg/mL
same,"IL-2 Release (pg/mL), ACTR T cells + U266B1 Target Cells + hSG16.17SEA (1 µg/mL)",[4],132 pg/mL
same,"T-cell proliferation: fold increase in CD3+ cells at 1 µg/mL hSG16.17SEA relative to no antibody, NCI-H929 Target Cells",[4],15.8 fold
same,"T-cell proliferation: fold increase in CD3+ cells at 1 µg/mL hSG16.17SEA relative to no antibody, U266B1 Target Cells",[4],8.72 fold
same,"IFNγ Release (pg/mL), ACTR T cells + NCI-H929 Target Cells + hSG16.17SEA (1 µg/mL)",[5],19800 pg/mL
same,"IFNγ Release (pg/mL), ACTR T cells + U266B1 Target Cells + hSG16.17SEA (1 µg/mL)",[5],7970 pg/mL
same,"IL-2 Release (pg/mL), ACTR T cells + NCI-H929 Target Cells + hSG16.17SEA (1 µg/mL)",[5],224 pg/mL
same,"IL-2 Release (pg/mL), ACTR T cells + U266B1 Target Cells + hSG16.17SEA (1 µg/mL)",[5],260 pg/mL
same,"T-cell proliferation: fold increase in CD3+ cells at 1 µg/mL hSG16.17SEA relative to no antibody, NCI-H929 Target Cells",[5],7.46 fold
same,"T-cell proliferation: fold increase in CD3+ cells at 1 µg/mL hSG16.17SEA relative to no antibody, U266B1 Target Cells",[5],1.62 fold
same,"IFNγ Release (pg/mL), ACTR T cells + NCI-H929 Target Cells + hSG16.17SEA (1 µg/mL)",[6],16700 pg/mL
same,"IFNγ Release (pg/mL), ACTR T cells + U266B1 Target Cells + hSG16.17SEA (1 µg/mL)",[6],12600 pg/mL
same,"IL-2 Release (pg/mL), ACTR T cells + NCI-H929 Target Cells + hSG16.17SEA (1 µg/mL)",[6],373 pg/mL
same,"IL-2 Release (pg/mL), ACTR T cells + U266B1 Target Cells + hSG16.17SEA (1 µg/mL)",[6],187 pg/mL
same,"T-cell proliferation: fold increase in CD3+ cells at 1 µg/mL hSG16.17SEA relative to no antibody, NCI-H929 Target Cells",[6],35.5 fold
same,"T-cell proliferation: fold increase in CD3+ cells at 1 µg/mL hSG16.17SEA relative to no antibody, U266B1 Target Cells",[6],49.5 fold
same,"IFNγ Release (pg/mL), ACTR T cells + NCI-H929 Target Cells + hSG16.17SEA (1 µg/mL)",[7],17100 pg/mL
same,"IFNγ Release (pg/mL), ACTR T cells + U266B1 Target Cells + hSG16.17SEA (1 µg/mL)",[7],12600 pg/mL
same,"IL-2 Release (pg/mL), ACTR T cells + NCI-H929 Target Cells + hSG16.17SEA (1 µg/mL)",[7],46.6 pg/mL
same,"IL-2 Release (pg/mL), ACTR T cells + U266B1 Target Cells + hSG16.17SEA (1 µg/mL)",[7],214 pg/mL
same,"T-cell proliferation: fold increase in CD3+ cells at 1 µg/mL hSG16.17SEA relative to no antibody, NCI-H929 Target Cells",[7],11.5 fold
same,"T-cell proliferation: fold increase in CD3+ cells at 1 µg/mL hSG16.17SEA relative to no antibody, U266B1 Target Cells",[7],6.91 fold
same,"IFNγ Release (pg/mL), ACTR T cells + NCI-H929 Target Cells + hSG16.17SEA (1 µg/mL)",[8],16800 pg/mL
same,"IFNγ Release (pg/mL), ACTR T cells + U266B1 Target Cells + hSG16.17SEA (1 µg/mL)",[8],12700 pg/mL
same,"IL-2 Release (pg/mL), ACTR T cells + NCI-H929 Target Cells + hSG16.17SEA (1 µg/mL)",[8],420 pg/mL
same,"IL-2 Release (pg/mL), ACTR T cells + U266B1 Target Cells + hSG16.17SEA (1 µg/mL)",[8],17.8 pg/mL
same,"T-cell proliferation: fold increase in CD3+ cells at 1 µg/mL hSG16.17SEA relative to no antibody, NCI-H929 Target Cells",[8],9.76 fold
same,"T-cell proliferation: fold increase in CD3+ cells at 1 µg/mL hSG16.17SEA relative to no antibody, U266B1 Target Cells",[8],4.75 fold
same,"IFNγ Release (pg/mL), ACTR T cells + NCI-H929 Target Cells + hSG16.17SEA (1 µg/mL)",[9],6250 pg/mL
same,"IFNγ Release (pg/mL), ACTR T cells + U266B1 Target Cells + hSG16.17SEA (1 µg/mL)",[9],13700 pg/mL
same,"IL-2 Release (pg/mL), ACTR T cells + NCI-H929 Target Cells + hSG16.17SEA (1 µg/mL)",[9],262 pg/mL
same,"IL-2 Release (pg/mL), ACTR T cells + U266B1 Target Cells + hSG16.17SEA (1 µg/mL)",[9],34.8 pg/mL
same,"T-cell proliferation: fold increase in CD3+ cells at 1 µg/mL hSG16.17SEA relative to no antibody, NCI-H929 Target Cells",[9],80.1 fold
same,"T-cell proliferation: fold increase in CD3+ cells at 1 µg/mL hSG16.17SEA relative to no antibody, U266B1 Target Cells",[9],52 fold
